# Data as given in paper PMC4468861.
# Molecular target: N-terminally GST-tagged M. jannaschii SR(aa93-408) (M. jannaschii) (UniProt Q57739)
# Sequence of UniProt Q57739 (Q57739 93-408): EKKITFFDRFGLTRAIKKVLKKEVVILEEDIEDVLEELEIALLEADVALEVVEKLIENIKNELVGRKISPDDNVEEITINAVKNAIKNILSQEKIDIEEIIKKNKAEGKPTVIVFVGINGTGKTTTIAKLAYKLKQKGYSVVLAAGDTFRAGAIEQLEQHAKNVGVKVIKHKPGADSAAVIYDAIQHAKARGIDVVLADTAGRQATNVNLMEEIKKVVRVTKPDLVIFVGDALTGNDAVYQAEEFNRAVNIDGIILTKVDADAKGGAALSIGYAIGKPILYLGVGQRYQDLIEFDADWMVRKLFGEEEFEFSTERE
substance,measurement,value
"M. jannaschii SRP core complex containing fl-SRP54-ss, SRP19 and SRP RNA (from UniProt Q57565 1-451; Q58440 1-87)","GTPase rate of the SRP-SR complex in multiple turnover reactions (0.5 uM SRP, SR 0-25 uM, 25 °C), against SRP complexes containing SRP54-ss as the text prints (fl-SRP54 by the legend of Fig. 1b)",20 fold
